{"source": "paper PMC3306459", "about": "(Journal of Inorganic Biochemistry, 2011)", "binders": {"B1": {"name": "wild type Δ65iNOSoxy domain (oxygenase domain of inducible nitric oxide synthase, amino acid 66–498) (domain or fragment, mouse, UniProt P29477 66-498, looked up)", "chain": "LDKLHVTSTRPQYVRIKNWGSGEILHDTLHHKATSDFTCKSKSCLGSIMNPKSLTRGPRDKPTPLEELLPHAIEFINQYYGSFKEAKIEEHLARLEAVTKEIETTGTYQLTLDELIFATKMAWRNAPRCIGRIQWSNLQVFDARNCSTAQEMFQHICRHILYATNNGNIRSAITVFPQRSDGKHDFRLWNSQLIRYAGYQMPDGTIRGDAATLEFTQLCIDLGWKPRYGRFDVLPLVLQADGQDPEVFEIPPDLVLEVTMEHPKYEWFQELGLKWYALPAVANMLLEVGGLEFPACPFNGWYMGTEIGVRDFCDTQRYNILEEVGRRMGLETHTLASLWKDRAVTEINVAVLHSFQKQNVTIMDHHTASESFMKHMQNEYRARGGCPADWIWLVPPVSGSITPVFHQEMLNYVLSPFYYYQIEPWKTHIWQNE"}, "B2": {"name": "R375K Δ65iNOSoxy (amino acid 66–498) (domain or fragment, mouse, UniProt P29477 66-498, looked up)", "chain": "B1 chain with R310K"}, "B3": {"name": "R375N Δ65iNOSoxy (amino acid 66–498) (domain or fragment, mouse, UniProt P29477 66-498, looked up)", "chain": "B1 chain with R310N"}, "B4": {"name": "R375D Δ65iNOSoxy (amino acid 66–498) (domain or fragment, mouse, UniProt P29477 66-498, looked up)", "chain": "B1 chain with R310D"}}, "note": "Residue numbers refer to the chain shown, from its start. Names may count otherwise.", "data": [{"target": "T1, G450A iNOS full length protein (mouse, UniProt P29477 1-1144, G450A)", "T1 sequence (looked up)": "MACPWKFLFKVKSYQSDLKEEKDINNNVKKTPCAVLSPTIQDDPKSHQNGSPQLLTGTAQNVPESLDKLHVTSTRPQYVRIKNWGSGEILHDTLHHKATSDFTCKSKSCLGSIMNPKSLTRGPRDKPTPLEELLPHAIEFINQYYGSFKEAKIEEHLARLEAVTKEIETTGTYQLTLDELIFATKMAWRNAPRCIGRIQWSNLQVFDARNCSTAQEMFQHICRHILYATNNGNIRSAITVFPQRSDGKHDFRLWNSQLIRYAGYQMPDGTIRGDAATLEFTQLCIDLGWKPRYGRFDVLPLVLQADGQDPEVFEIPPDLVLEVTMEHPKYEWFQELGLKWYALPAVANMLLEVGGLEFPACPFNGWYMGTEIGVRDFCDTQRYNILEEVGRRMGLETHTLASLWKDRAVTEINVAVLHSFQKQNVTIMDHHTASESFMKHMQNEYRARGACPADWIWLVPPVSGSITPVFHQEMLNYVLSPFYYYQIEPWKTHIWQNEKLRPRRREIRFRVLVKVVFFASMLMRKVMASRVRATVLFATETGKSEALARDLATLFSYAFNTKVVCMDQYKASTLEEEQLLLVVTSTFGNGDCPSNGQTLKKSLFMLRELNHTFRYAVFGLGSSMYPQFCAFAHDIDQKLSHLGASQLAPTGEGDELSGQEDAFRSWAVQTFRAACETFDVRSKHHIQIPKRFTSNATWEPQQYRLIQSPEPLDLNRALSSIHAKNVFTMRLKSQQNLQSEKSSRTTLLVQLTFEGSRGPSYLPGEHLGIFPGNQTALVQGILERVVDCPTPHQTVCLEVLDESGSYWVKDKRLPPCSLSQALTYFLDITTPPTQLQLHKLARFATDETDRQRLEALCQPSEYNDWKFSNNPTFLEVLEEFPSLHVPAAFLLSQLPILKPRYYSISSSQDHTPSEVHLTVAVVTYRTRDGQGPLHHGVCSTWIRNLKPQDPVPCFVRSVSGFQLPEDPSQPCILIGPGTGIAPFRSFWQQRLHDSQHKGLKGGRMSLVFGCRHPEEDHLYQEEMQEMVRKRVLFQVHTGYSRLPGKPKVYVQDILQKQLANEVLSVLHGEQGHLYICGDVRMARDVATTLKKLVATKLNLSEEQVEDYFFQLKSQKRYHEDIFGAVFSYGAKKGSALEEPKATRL", "test": "cell-based or functional assay", "units": {"NO2^- production of the heterodimer, Griess assay": "µM", "NO synthesis (min^-1) of the heterodimer, oxyhemoglobin assay": "min⁻¹"}, "values": [{"binder": "B1", "NO2^- production of the heterodimer, Griess assay": 30.3, "NO synthesis (min^-1) of the heterodimer, oxyhemoglobin assay": 51.8}, {"binder": "B2", "NO2^- production of the heterodimer, Griess assay": 7.8, "NO synthesis (min^-1) of the heterodimer, oxyhemoglobin assay": 17.6}, {"binder": "B3", "NO2^- production of the heterodimer, Griess assay": 6.3, "NO synthesis (min^-1) of the heterodimer, oxyhemoglobin assay": 8.6}, {"binder": "B4", "NO2^- production of the heterodimer, Griess assay": 1.8, "NO synthesis (min^-1) of the heterodimer, oxyhemoglobin assay": 1.7}]}, {"target": "the molecule itself", "test": "SEC", "units": {"dimer content": "%"}, "values": [{"binder": "B2", "dimer content": 100}, {"binder": "B3", "dimer content": 38}, {"binder": "B4", "dimer content": 30}]}]}
